This passage reports Kd results from article PMC3775802.

Data set [1] deals with T1, human alpha-thrombin (THR) (Homo sapiens) (UniProt P00734+P00734). Briefly: competition (SPRi, free thrombin quantification). Particulars: 5' amino modifier C6 as ordered; 20 mM Tris-HCl pH 7.4, 1 mM MgCl2, 120 mM NaCl, 10 mM KCl; thrombin co-injected with 500 nM cytochrome c; binding temperature not stated.
Data set [2] deals with T1, human alpha-thrombin (THR) (Homo sapiens). The data set is described as follows: back-scattering interferometry. The conditions noted are these: 5' amino modifier C6 as ordered; 20 mM Tris-HCl pH 7.4, 1 mM MgCl2, 120 mM NaCl, 10 mM KCl; thrombin co-injected with 500 nM cytochrome c; binding temperature not stated; cited from earlier work.

Consider “TTTTTTTTTTAGTCCGTGGTAGGGGAGGTTGGGGTGACT [APT (anti-thrombin aptamer), solution competitor]”, for which the figures for the Kd in data set [1] and in data set [2] were 3.16 nM and 3.84 nM, respectively.
